Measurements reported in patent US20030165506A1 (VLAAMS INTERUNIVERSITAIR INSTITUUT VOOR BIOTECHNOLOGIE VZW, published 2003).

B1: amino terminal part of β-catenin, prey fusion of plasmid pGAD424-ATβctn (other, UniProt P35222 14-172, looked up)
chain: MEPDRKAAVSHWQQQSYLDSGIHSGATTTAPSLSGKGNPEEEDVDTSQVLYEWEQGFSQSFTQEQVADIDGQYAMTRAQRVRAAMFPETLDEGMQIPSTQFDAAHPTNVQRLAEPSQMLKHAVVNLINYQDDAELATRAIPELTKLLNDEDQVVVNKAA
notes: domain: amino terminal fragment 239-717; also called amino terminal fragment 239-717 of β-catenin; not shown: fusion partner encoded by the prey vector pGAD424 (Clontech)
B3: human αT-catenin fused to the GAL4 binding domain, bait plasmid pGBKT7-ATCTN(179-3024) (other, not shown: large carriers)
chain: SAETPITLNIDPQDLQVQTFTVEKLLEPLIIQVTTLVNCPQNPSSRKKGRSKRASVLLASVEEATWNLLDKGEKIAQEATVLKDELTASLEEVRKESEALKVSAERFTDDPCFLPKREAVVQAARALLAAVTRLLILADMIDVMCLLQHVSAFQRTFETLKNVANKSDLQKTYQKLGKELENLDYLAFKRQQDLKSPNQRDEIAGARASLKENSPLLHSICSACLEHSDVASLKASKDTVCEEIQNALNVISNASQGIQNMTTPPEPQAATLGSALDELENLIVLNPLTVTEEEIRPSLEKRLEAIISGAALLADSSCTRDLHRERIIAECNAIRQALQDLLSEYMNNAGKKERSNTLNIALDNMCKKTRDLRRQLRKAIIDHVSDSFLDTTVPLLVLIEAAKNGREKEIKEYAAIFHEHTSRLVEVANLACSMSTNEDGIKIVKIAANHLETLCPQIINAALALAARPKSQAVKNTMEMYKRTWENHIHVLTEAVDDITSIDDFLAVSESHILEDVNKCIIALRDQDADNLDRAAGAIRGRAARVAHIVTGEMDSYEPGAYTEGVMRNVNFLTSTVIPEFVTQVNVALEALSKSSLNVLDDNQFVDISKKIYDTIHDIRCSVMMIRTPEELEDVSDLEEEHEVRSHTSIQTEGKTDRAKMTQLPEAEKEKIAEQVADFKKVKSKLDAEIEIWDDTSNDIIVLAKNMCMIMMEMTDFTRGKGPLKHTTDVIYAAKMISESGSRMDVLARQIANQCPDPSCKQDLLAYLEQIKFYSHQLKICSQVKAEIQNLGGELIMSALDSVTSLIQAAKNLMNAVVQTVKMSYIASTKIIRIQSPAGPRHPVVMWRMKAPAKKPLIKREKPEETCAAVRRGSAKKKIHPLQVMSEFRGRQIY

Legend:
[1] = molecular target: T1, human α-catulin fused to the GAL4 DNA binding domain, bait plasmid pGBT9-αctl(50-2264) (human, UniProt P04386 1-147; Q9UBT7 1-734); assay: yeast two-hybrid, cotransformation of bait and prey, X-GAL staining (FIG. 7A)
T1 construct: Limits are printed only as cDNA positions (50-2264); also called α-catulin bait fusion
Text: (§1) The yeast strain Y190 (Matchmaker, Clontech, CA), which contains GAL4 promoter driven His and β-galactosidase reporters, was used for cotransformation of pGBT9 bait and pGAD424 prey plasmids, comprising the cloned inserts of interest.

[2] = molecular target: B3; assay: yeast two-hybrid, Y190 strain, CPRG quantification (FIG. 7B)
Experimental: as §1
To assay the strength of interaction between α-catenins and β-catenin, β-galactosidase activity was assayed using chlorophenol red-β-D-galactopyranoside (CPRG, Boehringer Mannheim, Del.) as a substrate, according to the provided protocol (Clontech Yeast Protocols Handbook).

[3] = molecular target: T2, human αT-catenin fused to the GAL4 binding domain, bait plasmid pGBT9-ATCTN(179-2860) (human, UniProt P04386 1-147 (Saccharomyces cerevisiae entry)); assay: yeast two-hybrid, X-GAL staining of cotransformants
T2 construct: also called αT-catenin bait fusion; hαT-catenin
Experimental: (§2) (A) Introduction in the two-hybrid system by cotransformation of the respective fusion constructs. […] (B) Quantification of interaction strength between β-catenin and either αE- or αT-catenin in the yeast two-hybrid system. β-Galactosidase activity was measured using CPRG as a substrate.

[4] = molecular target: T3, human αE-catenin fused to the GAL4 DNA binding domain, bait plasmid pGBT9-αECTN (human, UniProt P04386 1-147; P35221 2-906); assay: as above
T3 construct: no residue limits are printed; also called αE-catenin bait fusion
Experimental: as §2

[5] = molecular target: T4, β-catenin prey fusion of plasmid pGAD424-βctn (UniProt P35222 14-172); assay: cell-based or functional assay
T4 sequence (looked up): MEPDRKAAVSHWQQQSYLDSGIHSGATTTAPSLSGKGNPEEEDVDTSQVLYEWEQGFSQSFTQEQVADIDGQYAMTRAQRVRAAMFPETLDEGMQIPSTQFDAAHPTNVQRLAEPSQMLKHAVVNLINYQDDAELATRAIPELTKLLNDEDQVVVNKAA

[6] = molecular target: B1; assay: cell-based or functional assay
[7] = molecular target: T2, human αT-catenin fused to the GAL4 …; assay: yeast two-hybrid, X-GAL staining of cotransformants (FIG. 7A)
Text: as §1

Binder: B1
- binding result [1]: no binding
- binding result [2]: binds
- binding result [3]: binds
- binding result [4]: binds

B2: human αT-catenin fused to the LexA binding domain, bait plasmid pLexMG-ATCTN(179-2860) (other)
chain: MKALTARQQEVFDLIRDHISQTGMPPTRAEIAQRLGFRSPNAAEEHLKALARKGVIEIVSGASRGIRLLQEEEEGLPLVGRVAAGEPLLAQQHIEGHYQVDPSLFKPNADFLLRVSGMSMKDIGIMDGDLLAVHKTQDVRNGQVVVARIDDEVTVKRLKKQGNKVELLPENSEFKPIVVDLRQQSFTIEGLAVGVIRNGDWLSAETPITLNIDPQDLQVQTFTVEKLLEPLIIQVTTLVNCPQNPSSRKKGRSKRASVLLASVEEATWNLLDKGEKIAQEATVLKDELTASLEEVRKESEALKVSAERFTDDPCFLPKREAVVQAARALLAAVTRLLILADMIDVMCLLQHVSAFQRTFETLKNVANKSDLQKTYQKLGKELENLDYLAFKRQQDLKSPNQRDEIAGARASLKENSPLLHSICSACLEHSDVASLKASKDTVCEEIQNALNVISNASQGIQNMTTPPEPQAATLGSALDELENLIVLNPLTVTEEEIRPSLEKRLEAIISGAALLADSSCTRDLHRERIIAECNAIRQALQDLLSEYMNNAGKKERSNTLNIALDNMCKKTRDLRRQLRKAIIDHVSDSFLDTTVPLLVLIEAAKNGREKEIKEYAAIFHEHTSRLVEVANLACSMSTNEDGIKIVKIAANHLETLCPQIINAALALAARPKSQAVKNTMEMYKRTWENHIHVLTEAVDDITSIDDFLAVSESHILEDVNKCIIALRDQDADNLDRAAGAIRGRAARVAHIVTGEMDSYEPGAYTEGVMRNVNFLTSTVIPEFVTQVNVALEALSKSSLNVLDDNQFVDISKKIYDTIHDIRCSVMMIRTPEELEDVSDLEEEHEVRSHTSIQTEGKTDRAKMTQLPEAEKEKIAEQVADFKKVKSKLDAEIEIWDDTSNDIIVLAKNMCMIMMEMTDFTRGKGPLKHTTDVIYAAKMISESGSRMDVLARQIANQCPDPSCKQDLLAYLEQIKFYSHQLKICSQVKAEIQNLGGELIMSALDSVTSLIQAAKNLMNAVVQTVKMSYIASTKIIRIQSPAGPRHPVVMWRMKAPAKKPLIKREKPEETCAAVRRGSAKKKIHPLQVMSEFRGRQIY
- β-Galactosidase activity measured using CPRG as a substrate, yeast two-hybrid, L40 yeast strain [5]: ~4 fold against αE-catenin/β-catenin (pLexMG-αEctn plus pGAD424-βctn)

Binder: B3
- β-Galactosidase activity measured using CPRG as a substrate, yeast two-hybrid, Y190 yeast strain [6]: ~4 fold against αE-catenin/β-catenin (pGBT9-αEctn plus pGAD424-ATβctn)

B4: nearly full-length human plakoglobin, prey fusion of plasmid pGAD424-Plakoglobin(227-2340) (other, UniProt P14923 37-740, looked up)
chain: VSSKGIMEEDEACGRQYTLKKTTTYTQGVPPSQGDLEYQMSTTARAKRVREAMCPGVSGEDSSLLLATQVEGQATNLQRLAEPSQLLKSAIVHLINYQDDAELATRALPELTKLLNDEDPVVVTKAAMIVNQLSKKEASRRALMGSPQLVAAVVRTMQNTSDLDTARCTTSILHNLSHHREGLLAIFKSGGIPALVRMLSSPVESVLFYAITTLHNLLLYQEGAKMAVRLADGLQKMVPLLNKNNPKFLAITTDCLQLLAYGNQESKLIILANGGPQALVQIMRNYSYEKLLWTTSRVLKVLSVCPSNKPAIVEAGGMQALGKHLTSNSPRLVQNCLWTLRNLSDVATKQEGLESVLKILVNQLSVDDVNVLTCATGTLSNLTCNNSKNKTLVTQNSGVEALIHAILRAGDKDDITEPAVCALRHLTSRHPEAEMAQNSVRLNYGIPAIVKLLNQPNQWPLVKATIGLIRNLALCPANHAPLQEAAVIPRLVQLLVKAHQDAQRHVAAGTQQPYTDGVRMEEIVEGCTGALHILARDPMNRMEIFRLNTIPLFVQLLYSSVENIQRVAAGVLCELAQDKEAADAIDAEGASAPLMELLHSRNEGTATYAAAVLFRISEDKNPDYRKRVSVELTNSLFKHDPAAWEAAQSMIPINEPYGDDMDATYRPMYSSDVPLDPLEMHMDMDGDYPIDTYSDGLRPPYPTA
notes: domain: nearly full-length plakoglobin; not shown: fusion partner encoded by the prey vector pGAD424 (Clontech)
- binding result [7]: binds
